# System: Escherichia coli TOP10
# Assay: shrunken log2 fold change of peptide-encoding DNA abundance (4.5 h post-induction vs induction); higher = less antimicrobial activity (less host growth inhibition)
# Conditions: time post-induction: 4.5 h; library: site-saturation at positions 5, 18, 19, 20
# 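Also: peptides expressed intracellularly from a pBAD plasmid library in pooled LB shake-flask culture, induced with 0.3% L-arabinose, DNA abundance read by NGS, three biological replicates, DESeq2 with apeglm shrinkage.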
row,Sequence,shrunken log2 fold change
1,RRIRSRPPRLPRPRPRPSGYPRP,-0.443
2,RRIRKRPPRLPRPRPRPRRKPRP,0.969
3,RRIRYRPPRLPRPRPRPASGPRP,-0.148
4,RRIRGRPPRLPRPRPRPFFHPRP,-0.0568
5,RRIRVRPPRLPRPRPRPSGEPRP,0.0818
6,RRIRVRPPRLPRPRPRPVTAPRP,-0.0594
7,RRIRVRPPRLPRPRPRPRRYPRP,-0.0486
8,RRIRNRPPRLPRPRPRPTMQPRP,0.0135
9,RRIRERPPRLPRPRPRPMRHPRP,0.0434
10,RRIRKRPPRLPRPRPRPTCKPRP,0.347
11,RRIRLRPPRLPRPRPRPWDHPRP,-1.04
12,RRIRPRPPRLPRPRPRPSDWPRP,0.248
13,RRIRGRPPRLPRPRPRPKETPRP,-0.0578
14,RRIRGRPPRLPRPRPRPFHCPRP,-0.36
15,RRIRSRPPRLPRPRPRPFDMPRP,0.394
16,RRIRSRPPRLPRPRPRPCPYPRP,0.0125
17,RRIRIRPPRLPRPRPRPKTLPRP,-0.229
18,RRIRQRPPRLPRPRPRPAQVPRP,0.0263
19,RRIRMRPPRLPRPRPRPFHGPRP,-0.128
20,RRIRARPPRLPRPRPRPKEQPRP,-0.111
21,RRIRARPPRLPRPRPRPKKAPRP,0.285
22,RRIRWRPPRLPRPRPRPLFHPRP,-0.0933
23,RRIRERPPRLPRPRPRPCAMPRP,-0.0091
24,RRIRGRPPRLPRPRPRPEIGPRP,1.92
25,RRIRMRPPRLPRPRPRPPGPPRP,1.41

row,Sequence,shrunken log2 fold change
1,RRIRMRPPRLPRPRPRPIYWPRP,-0.0918
2,RRIRTRPPRLPRPRPRPLCSPRP,-0.27
3,RRIRNRPPRLPRPRPRPRRHPRP,0.0212
4,RRIRIRPPRLPRPRPRPYGYPRP,-0.0764
5,RRIRERPPRLPRPRPRPPVEPRP,0.268
6,RRIRYRPPRLPRPRPRPPSSPRP,-0.154
7,RRIRVRPPRLPRPRPRPSWAPRP,0.0598
8,RRIRYRPPRLPRPRPRPYVNPRP,-0.361
9,RRIRMRPPRLPRPRPRPHSWPRP,0.273
10,RRIRLRPPRLPRPRPRPNEVPRP,-0.0062
11,RRIRHRPPRLPRPRPRPHVPPRP,0.084
12,RRIRHRPPRLPRPRPRPLEMPRP,-0.236
13,RRIRSRPPRLPRPRPRPNVVPRP,-0.0558
14,RRIRPRPPRLPRPRPRPLFSPRP,-0.103
15,RRIRERPPRLPRPRPRPEANPRP,-0.00156
16,RRIRRRPPRLPRPRPRPGSEPRP,0.00207
17,RRIRLRPPRLPRPRPRPGAKPRP,-0.548
18,RRIRLRPPRLPRPRPRPHCGPRP,-0.22
19,RRIRNRPPRLPRPRPRPHAEPRP,0.00246
20,RRIRCRPPRLPRPRPRPVLIPRP,-0.414
21,RRIRNRPPRLPRPRPRPYIKPRP,-1.03
22,RRIRCRPPRLPRPRPRPDTGPRP,-0.879
23,RRIRWRPPRLPRPRPRPCFLPRP,-0.462
24,RRIRFRPPRLPRPRPRPCSVPRP,-0.338
25,RRIRARPPRLPRPRPRPQCCPRP,0.219

row,Sequence,shrunken log2 fold change
1,RRIRCRPPRLPRPRPRPICTPRP,-0.307
2,RRIRARPPRLPRPRPRPIWMPRP,-0.00518
3,RRIRCRPPRLPRPRPRPAEAPRP,0.12
4,RRIRPRPPRLPRPRPRPSNMPRP,-0.884
5,RRIRERPPRLPRPRPRPSHSPRP,-1.37
6,RRIRQRPPRLPRPRPRPHYEPRP,-0.167
7,RRIRIRPPRLPRPRPRPCQSPRP,-0.00131
8,RRIRWRPPRLPRPRPRPFNLPRP,0.0233
9,RRIRSRPPRLPRPRPRPYVNPRP,-0.283
10,RRIRQRPPRLPRPRPRPWHIPRP,-0.00133
11,RRIRVRPPRLPRPRPRPELFPRP,0.181
12,RRIRPRPPRLPRPRPRPQLLPRP,0.271
13,RRIRDRPPRLPRPRPRPPPLPRP,0.586
14,RRIRVRPPRLPRPRPRPCMVPRP,-0.614
15,RRIRKRPPRLPRPRPRPRYIPRP,-0.268
16,RRIRPRPPRLPRPRPRPLASPRP,0.104
17,RRIRQRPPRLPRPRPRPLDIPRP,-0.163
18,RRIRKRPPRLPRPRPRPGPLPRP,0.578
19,RRIRDRPPRLPRPRPRPESEPRP,0.444
20,RRIRTRPPRLPRPRPRPFHVPRP,-0.0683
21,RRIRHRPPRLPRPRPRPPWSPRP,0.093
22,RRIRPRPPRLPRPRPRPNYLPRP,-0.0996
23,RRIRLRPPRLPRPRPRPPRGPRP,0.637
24,RRIRLRPPRLPRPRPRPFYGPRP,-0.157
25,RRIRFRPPRLPRPRPRPRQFPRP,-0.0547

# From the supplement of paper PMC9112550, “Optimization of the antimicrobial peptide Bac7 by deep mutational scanning” (BMC Biology, 2022)
